# Measured values: the nanobody polyreactivity screen of Harvey et al. (2022)
# Experiment: yeast display, Sf9 membrane polyspecificity reagent, FACS + sequencing; frameworks hold sequencing errors
# Method in brief: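 Polyreactivity labels are assigned by the sorting gate from which each nanobody was recovered. The gates were low and high (top ~1%), set on anti-HA fluorescence for expression and streptavidin fluorescence for reagent binding. Before sorting, galactose-induced (36–48 hours) yeast display cells were stained for 1 hour at 4 °C with 10% biotinylated, detergent-solubilized Sf9 membrane reagent.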
row,Sequence,polyreactivity (PSR sort gate)
1,QVQLVESGGGLVQAGGSLRLSCAASGSTFTYYAMGWYRQARGKERELVAAISSGGSTYYADSVKGRFTISRDNAKNTDYLQMNSLKPEDTAVYYCAARGYYGKFSGTGYWGQGTQVTVSS,high polyreactivity
2,QVQLVESGGGLVQAGGSLRLSCAASGSTFVAYTMGWYRQAPGKERELVAAITKRGSSTYYADSVKGRFTISRDNAKNTVYLHMNSLKPEDTAVYYCAAARSLKSYEGDYWGQGTQVTVSS,high polyreactivity
3,QVQLVESGGGLVQAGGSLRLSCAASGSTFVDNAMGWCRQAPGKERELVADISSGGSTYYADSVKGRFTISRDNAKNTVYLQMNSLKPEDTAVYYCAARGVYRRGKYNSWGQGTQVTVSS,high polyreactivity
4,QVQLVESGGGLVQAGGSLRLSCAASGSTFVDNAMGWYRQAPGKERELVAAITSSGGSTYYADSVKGRFTISRDNAQNTVYLQMNSLKPEDTAVYYCAADEWIVHDGYYSSYYYWGQGTQVTVSS,low polyreactivity
5,QVQLVESGGGLVQAGGSLRLSCAASGSTFVDNAMGWYRQAPGKERELVADISSGGSTYYADSVKGRFTISRDNAKNTVYLQMNSLKPEDTAVYYCAARRITSTDEYYWGQGTQVTVSS,high polyreactivity
6,QVQLVESGGGLVQAGGSLRLSCAASGSTFVDYAMGWYRQAPGKEREFVAAISFSGDSTYYADSVKGRFTISRDNAKNSVYLQLNSLKPEDTAVYYCAASRPYYNRQYYRSWRDDYWGQGTQVTVSS,low polyreactivity
7,QVQLVESGGGLVQAGGSLRLSCAASGSTFVFYTMGWYRPAPGKERELVAGISRNGGSTYYADSVKGRFTISRDNAKNTVYLQMNSLKTEDSAVYYCAALTWSRAYYSRKFYYWGQGTQVTVSS,high polyreactivity
8,QVQLVESGGGLVQAGGSLRLSCAASGSTFVGNAKGWYRQAPGKERELVAAITGGGGSTYYADSVKGRFTISRDNAKNTVYLQMNSLKPEDTAVYYCARDRTDYYVCYVRYYYWGQGTQVTVSS,low polyreactivity
9,QVQLVESGGGLVQAGGSLRLSCAASGSTFVGNAMGSYRQAPGKERELVATISNSGGRTYYADSVKGRFTISRDNAKNPVYLQRNSLKPEDTAVYYCPADHPAFGPGYSFDYWGQGTQVTVSS,low polyreactivity
10,QVQLVESGGGLVQAGGSLRLSCAASGSTFVGNSMGWYRKAPGKERELVAAISGSAGRTYYADSVKGRFTISRDNAKNTVYLQMNSLKPEDTAFYYCNKRYRGGVVYSRYDYWGQGTQVTVSS,low polyreactivity
11,QVQLVESGGGLVQAGGSLRLSCAASGSTFVGNVMGWYRQAPGKERELVATISRSGGRTYYADSVKGRFTISRDNAKNTVYLQMNSLKPEDTAVYYCAAGFVYTTASRWGGRTRYDYWGQGTQVTVSS,high polyreactivity
12,QVQLVESGGGLVQAGGSLRLSCAASGSTFVGYAMGWYRHAPGKERELVAAISSSGGRTNYADSVKGRFTISRDNAKNTVYLQMNSLKPEDTAVYYCAAKAYRSPVYYWGQGTQVTVSS,high polyreactivity
13,QVQLVESGGGLVQAGGSLRLSCAASGSTFVGYAMGWYRPAPGKDRELVADIDSIGGSTYYADSVKGRFTISRDNAKNTVYVQMNSPKPEDTAVYYCAKTWYPWSRSGYYRRYDSWGQGTQVTVSS,low polyreactivity
14,QVQLVESGGGLVQAGGSLRLSCAASGSTFVGYAMGWYRQAPGKERELVAAISGRGGSTYYADSVKGRFTISRDNAKNTVYLQMNSLKPEDTAVYYCNARRRKTVPNYIYNYWGQGTQVTVSS,high polyreactivity
15,QVQLVESGGGLVQAGGSLRLSCAASGSTFVGYAMGWYRQAPGKERELVAAISRSGGRTYYADSVKGRFTISRDNAKNTVYLQMNSLKPEDTAVYYCYPYYIASTFDYWGQGTQVTVSS,high polyreactivity
16,QVQLVESGGGLVQAGGSLRLSCAASGSTFVGYAMGWYRQAPGKERELVADIDSIGGSTYYADSVKGRFTISRDNAKNTVYLQMNSMKPEDTAVYYCAARRFDTALVLYDYWGQGSQVTVSS,low polyreactivity
17,QVQLVESGGGLVQAGGSLRLSCAASGSTFVINAMGWYRQAPGKERELVAAISYDGGGTYYADSVKGRFTISRDNAKNTVYLQMNSLKPEDTAGYYCAAENFYPYTYYASDYWGQGTHVTVSS,high polyreactivity
18,QVQLVESGGGLVQAGGSLRLSCAASGSTFVIYAMGWYIQAPGKERELVAAINSGVSTYADSVKGRFTISRDNAKNTVYLQMNSLKPEDTAVYYCNAVSRPPYGPVFSAPAGGSWGQGTQVTVSS,low polyreactivity
19,QVQLVESGGGLVQAGGSLRLSCAASGSTFVIYAMGWYRQAPGKERELVASIRGRTGSTYYADSVKGRFTISRDNAKNTVYLQMNSLKPEDTAVYYCAATPGYKSKMDYWGQGTQVTVSS,high polyreactivity
20,QVQLVESGGGLVQAGGSLRLSCAASGSTFVIYGMGWYRQAPGKERELVADITWIGGSTYYADSVKGRFTISRDNAKNTVYLQMNSLKPEDTAVYYCAADAAYLYLYNWYDTEDDYWGQGTQVTVSS,low polyreactivity
21,QVQLVESGGGLVQAGGSLRLSCAASGSTFVIYTMGGSRQAPGKERELVAAISWSGGITRYADSVKGRFTISRDIAKNTVYLQMNSLKPEDTAVYYCNASQWPSRFDYWGQGTQVSVSS,low polyreactivity
22,QVQLVESGGGLVQAGGSLRLSCAASGSTFVKNDMGWYRQAPGKERELVAANSGGSTNYADSVTGRFTISRDNAKNTVYLQMNSLKPEDTAVYYCNAAVITKYAGRGGRPTGRMYYWGQGTQVTVSS,low polyreactivity

row,Sequence,polyreactivity (PSR sort gate)
1,QVQLVESGGGLVQAGGSLRLSCAASGSTFVKYAMGWYRQAPGKERELVAAIDSSGGSTYYADSVKGRFTISRDNAKNTVYLQMNSLKAEDTAVYYCAAPRGNRLKGLEGYYWGQGTQVTVSS,high polyreactivity
2,QVQLVESGGGLVQAGGSLRLSCAASGSTFVKYAMGWYRQAPGKERELVAAISGYSGRTYYADSVKGRFTISRDNAKNTVYLQMNSLKPEDTAVYYCAAEWDDGRSWYWYYLVGFEYWGQGTQVTVSS,high polyreactivity
3,QVQLVESGGGLVQAGGSLRLSCAASGSTFVLYAMGWYRQAPGKERELVAAITKRGGNTYYADSVKGRFTISRDNAKNTVYLQMNSLKPEDTAVYYCAADHVRSPFDSWGQGTQVTVSS,low polyreactivity
4,QVQLVESGGGLVQAGGSLRLSCAASGSTFVPNAMGWYRQAPGKEREFVAAIRVSCDNTYYADSVKGRFTISRDNAKNTDYLQMNSLKPEDTAVYYCAATGTVLGSVDYWGQGSQVTVSS,low polyreactivity
5,QVQLVESGGGLVQAGGSLRLSCAASGSTFVPNAMGWYRQAPGKERELVAGISWSGGGTSYADSVKGRFTISRDNAKNTVYLQMNSLKPEDTAVYYCAVVGYEQNEYDYWGQGTQVTVSS,low polyreactivity
6,QVQLVESGGGLVQAGGSLRLSCAASGSTFVPYAMGWYRQAPGKERELVASITYSGGSTSYADSVKGRVTISRDTAKNTVYLQMNSLKPEDTAVNYCAAVPWVVYSGYDYWGQGTQVTVSS,low polyreactivity
7,QVQLVESGGGLVQAGGSLRLSCAASGSTFVPYTMGWYRQAPGKERELVAAISGSGGTDYADSVKGRFTISRDNAKNTVYLQMNSLKPEDTAVYYCATDGLDFWFIYDYWGQGTHVTVSS,low polyreactivity
8,QVQLVESGGGLVQAGGSLRLSCAASGSTFVQYAMGWYRQAPGKERELVAAISGSGGRTYYADSVKGRFTLSRDNAKNTVYSHMNSLKPEDTAVYYCAAAYNTDFYYWGQGTQVTVSS,high polyreactivity
9,QVQLVESGGGLVQAGGSLRLSCAASGSTFVRNAMGWYRQAPGKEREFVASISSTSGRTYYADSVKGRFTISRDNAKNTVYLQMNRLKPEDTAVYYCAADVPPKYRHRYTLYDYWGQGTQVTVSS,low polyreactivity
10,QVQLVESGGGLVQAGGSLRLSCAASGSTFVRNAMGWYRQAPGKERELVAAISRSGGRTYYADSVKGRFTISRDNAKNTVYLQMNSLKPEDTAVYYCAKKRSKPISFDYWGQGTQVTVSS,high polyreactivity
11,QVQLVESGGGLVQAGGSLRLSCAASGSTFVRNAMGWYRQAPGKERELVAAITSSGGSTYYADSVKGRFTISRDNAKNTVYLQMNSLKPEDTAVYYCAKRRYYRYDYWGQGTQVTVSS,low polyreactivity
12,QVQLVESGGGLVQAGGSLRLSCAASGSTFVRNAMGWYRQAPGKERELVAAITSSGGSTYYADSVKGRFTISRDNAMKTVYLQMNSLKPEDTAVYYCNAELGSDTANYDYWGQGTQVTVSS,low polyreactivity
13,QVQLVESGGGLVQAGGSLRLSCAASGSTFVRYAKGWYRQAPGKERELVAGISRRSGRTYYADSVKGRFTISRDNAKNTVYLQMNSLKPEDTAVYYCAARGIGGYEYWGQGTQVTVSS,high polyreactivity
14,QVQLVESGGGLVQAGGSLRLSCAASGSTFVRYAMGWYRQAPGKERELVAAIDGGGTTKYADSVKGRFTISRDNAKNTVYLQMNSLKPEDTSVYYCAADQVWGYDSWGQGTQVTVSS,low polyreactivity
15,QVQLVESGGGLVQAGGSLRLSCAASGSTFVRYAMGWYRQAPGKERELVAAISGSGGRTYYADSVKGRFTISRDNAKNTVYLQMYSLKPEDTAVYYCATSTAGGRQTVSQYRYYWGQGTQVTVSS,high polyreactivity
16,QVQLVESGGGLVQAGGSLRLSCAASGSTFVRYAMGWYRQAPGKERELVAAISSGGSRTYYADSVKGRFTISRDNAKNTVYLQMNSLKPEDTAVYYCATVSTYYHYRRYDYWGQGTQVTVSS,high polyreactivity
17,QVQLVESGGGLVQAGGSLRLSCAASGSTFVRYDMGWYRQAPGKERELVADISWSGVSTYADSVKGRFTISRDNAKNTVYLQMNSLKPEDTAVYYCAKDSDLYQRGGYYWGQGTQVTVSS,low polyreactivity
18,QVQLVESGGGLVQAGGSLRLSCAASGSTFVSNAMGWYRPAPGKERELVASISQSGGGTDYADSVKGRFTISRDNAKNTVYLQMNSLKPEDTAVYYCAADRVPVQAPYDYWGQGTQVTVSS,high polyreactivity
19,QVQLVESGGGLVQAGGSLRLSCAASGSTFVSNAMGWYRQAPGKERELVATITTSGGSTYYADSVKGRFTISRDNAKNTVYLQMNSLKPEDTAVYYCNADYDFNFIDWVYFLYDYWGQGTQVTVSS,low polyreactivity
20,QVQLVESGGGLVQAGGSLRLSCAASGSTFVSNAMGWYSQAPGKERELVAAISSSDDSTYYADSVKGRFTLSRDKAKNTVYLQMISLKPEDTAVYYCAAESDSDQHDGDYWGQGTQVTVSS,low polyreactivity
21,QVQLVESGGGLVQAGGSLRLSCAASGSTFVSYAMGWSRQAPGKERELVAAISISDSSTYYADSVKGRFTISRDNAKNTVFLQMNSLKPEDTAVYYCNRYDYWGQGTQVTVSS,low polyreactivity
